# ± gives the uncertainty stated by the source.
# B1: Lysine-specific demethylase 2B, residues 656 to 722; numbered along this chain, Q8NHM5 (parent)
# chain: LPHTAVCLVCGEAGKEDTVEEEEGKFNLMLMECSICNEIIHPGCLKIKESEGVVNDELPNCWECPKC
# Variants of: B1
# Assay: abundance fitness (aPCA) (normalised: wild type 0, dead -1); higher = more abundant; growth selection in yeast, the domain comes from the species named
# Conditions: Homo sapiens
row,Variant,abundance fitness
1,P42Y,0.122 ± 0.27
2,P42M,-0.52 ± 0.22
3,G24P,-0.481 ± 0.28
4,G24V,-0.021 ± 0.071
5,G24K,-0.051 ± 0.11
6,G24H,0.346 ± 0.14
7,G24E,0.013 ± 0.07
8,G11W,-0.533 ± 0.12
9,G11Q,0.129 ± 0.1
10,G11K,0.222 ± 0.096
11,G11T,-0.354 ± 0.11
12,G11I,-0.828 ± 0.49
13,C10R,-0.53 ± 0.087
14,C10E,-0.329 ± 0.096
15,C10P,-0.517 ± 0.23
16,C10A,-0.37 ± 0.098
17,C10Q,-0.528 ± 0.15
18,E63R,-0.031 ± 0.066
19,E63W,-0.386 ± 0.074
20,E63C,-0.073 ± 0.12
21,E63P,-0.968 ± 0.32
22,E63F,-0.407 ± 0.14
23,E63S,-0.223 ± 0.074
24,E63N,-0.246 ± 0.12

row,Variant,abundance fitness
1,C67E,-0.596 ± 0.41
2,C67W,-1.43 ± 0.48
3,C67R,-1.26 ± 0.43
4,C67P,-0.867 ± 0.34
5,C67H,-0.28 ± 0.22
6,N37R,0.111 ± 0.066
7,N37S,0.057 ± 0.096
8,N37K,0.095 ± 0.2
9,N37T,-0.369 ± 0.24
10,D17E,-0.069 ± 0.081
11,D17Q,-0.091 ± 0.12
12,D17F,-0.017 ± 0.16
13,D17P,-0.168 ± 0.15
14,D17W,-0.553 ± 0.12
15,D17R,-0.066 ± 0.082
16,D17I,0.068 ± 0.22
17,T18F,-0.113 ± 0.11
18,T18N,-0.026 ± 0.27
19,T18Q,-0.062 ± 0.095
20,T18P,-0.268 ± 0.13
21,T18M,-0.092 ± 0.18
22,T18L,-0.042 ± 0.094
23,T18R,-0.188 ± 0.081
24,T18A,-0.514 ± 0.13

row,Variant,abundance fitness
1,T18C,-0.213 ± 0.14
2,V9D,-0.287 ± 0.084
3,V9S,-0.1 ± 0.12
4,V9A,-0.042 ± 0.099
5,V9I,0.226 ± 0.081
6,V9G,-0.273 ± 0.1
7,V9P,-0.707 ± 0.14
8,V9K,0.088 ± 0.085
9,V9N,0.239 ± 0.3
10,V9Q,-0.635 ± 0.27
11,M31Q,-0.662 ± 0.28
12,M31S,-0.446 ± 0.14
13,M31R,-0.141 ± 0.085
14,M31F,-0.272 ± 0.16
15,M31W,-0.229 ± 0.089
16,P59E,0.249 ± 0.17
17,P59T,-0.012 ± 0.13
18,P59M,-0.183 ± 0.2
19,P59R,0.015 ± 0.077
20,P59W,-0.319 ± 0.13
21,P59F,-0.261 ± 0.16
22,P59S,-0.071 ± 0.11
23,P65H,-0.289 ± 0.14
24,P65Q,-0.454 ± 0.26

row,Variant,abundance fitness
1,P65E,-0.148 ± 0.12
2,E49C,-0.039 ± 0.11
3,E49S,-0.061 ± 0.088
4,E49M,-0.005 ± 0.18
5,E49D,-0.198 ± 0.21
6,E49Y,-0.187 ± 0.2
7,V53R,-0.148 ± 0.073
8,V53N,-0.136 ± 0.21
9,V53P,-0.15 ± 0.095
10,V53E,0.003 ± 0.11
11,V53I,-0.07 ± 0.13
12,I40S,0.096 ± 0.074
13,I40F,-0.579 ± 0.31
14,I40P,-0.72 ± 0.12
15,D56K,0.179 ± 0.13
16,D56Y,0.063 ± 0.2
17,D56E,-0.075 ± 0.069
18,D56V,-0.102 ± 0.067
19,D56L,-0.114 ± 0.085
20,D56W,-0.401 ± 0.089
21,C44T,-0.982 ± 0.19
22,C44R,-0.709 ± 0.11
23,C44A,-0.779 ± 0.18
24,E38Q,-0.098 ± 0.12

row,Variant,abundance fitness
1,E38D,-0.294 ± 0.35
2,E38M,0.066 ± 0.072
3,E38P,-0.723 ± 0.29
4,E38V,-0.13 ± 0.073
5,E57S,0.102 ± 0.087
6,E57G,-0.065 ± 0.062
7,E57F,-0.107 ± 0.14
8,A5D,-0.726 ± 0.34
9,A5C,0.07 ± 0.3
10,A5M,0.195 ± 0.088
11,A5G,-0.338 ± 0.17
12,A5L,-0.004 ± 0.13
13,C61L,-0.04 ± 0.1
14,C61D,-0.475 ± 0.37
15,C61F,-0.325 ± 0.19
16,C61E,-0.105 ± 0.09
17,C61S,0.018 ± 0.1
18,C61P,-0.054 ± 0.11
19,C61T,0.248 ± 0.098
20,C61I,-0.349 ± 0.26
21,C61A,0.053 ± 0.096
22,E22Y,-0.291 ± 0.42
23,E22Q,0.086 ± 0.12
24,E22S,-0.01 ± 0.088

row,Variant,abundance fitness
1,E22C,-0.235 ± 0.23
2,E21K,0.022 ± 0.13
3,E21I,-0.566 ± 0.3
4,E21Q,-0.324 ± 0.19
5,E21H,0.264 ± 0.26
6,K46H,-0.532 ± 0.28
7,K46V,-0.058 ± 0.07
8,K46S,0.206 ± 0.081
9,K46W,-0.148 ± 0.098
10,K46Q,0.195 ± 0.12
11,K46L,0.007 ± 0.08
12,K46D,0.224 ± 0.18
13,E12T,0.045 ± 0.073
14,E12G,0.099 ± 0.073
15,K15N,-0.751 ± 0.37
16,K15H,-0.65 ± 0.4
17,K15I,-0.305 ± 0.16
18,K15Q,-0.378 ± 0.17
19,K15T,-0.202 ± 0.13
20,K15P,-0.609 ± 0.11
21,C7R,-0.908 ± 0.31
22,C7A,-0.691 ± 0.28
23,S34P,-0.456 ± 0.16
24,S34R,-0.229 ± 0.092

row,Variant,abundance fitness
1,S34E,-0.469 ± 0.21
2,S34I,-0.058 ± 0.1
3,S34C,-0.053 ± 0.18
4,S34H,-0.03 ± 0.23
5,S34W,-0.545 ± 0.15
6,W62L,-0.391 ± 0.096
7,W62N,-0.541 ± 0.13
8,W62A,-0.509 ± 0.082
9,W62M,-0.425 ± 0.14
10,W62S,-0.551 ± 0.12
11,W62R,-0.574 ± 0.11
12,W62V,-0.465 ± 0.074
13,E23T,-0.028 ± 0.12
14,E23C,-0.193 ± 0.16
15,E23W,-0.554 ± 0.15
16,E23L,-0.354 ± 0.11
17,E23P,-0.342 ± 0.22
18,E23N,-0.05 ± 0.18
19,E23D,-0.016 ± 0.17
20,L1R,-0.185 ± 0.14
21,L28A,0.124 ± 0.08
22,L28P,-0.162 ± 0.16
23,L28C,-0.16 ± 0.18

# From the Human Domainome abundance scans (Beltran et al. 2025)
